Biological target: T1, LMP1重组蛋白抗原 (SEQ ID NO.2, 213-408aa of LMP1, expressed in E. coli) (Epstein-Barr virus, UniProt P29362 187-404)
T1 construct: Recombinant fragment purified with NTA buffers (a tag from the expression vector is likely but is not described); also called LMP1蛋白
T1 chain: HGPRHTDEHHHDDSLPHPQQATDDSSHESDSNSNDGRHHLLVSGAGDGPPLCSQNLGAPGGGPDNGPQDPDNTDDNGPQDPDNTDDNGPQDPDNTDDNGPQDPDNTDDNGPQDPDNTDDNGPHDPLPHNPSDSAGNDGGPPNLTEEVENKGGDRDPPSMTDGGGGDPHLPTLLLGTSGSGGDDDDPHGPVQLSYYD
Assay: non-competitive ELISA by Beatty's method, power curve model

B1: 抗LMP1单克隆抗体 7B63B10 (secreted by hybridoma cell line 7B63B10, CCTCC NO: C2019160) (antibody, IgG2b, V domains shown)
VH: EVKLVESGGGFVQPGGSRKLSCAASGFTFSSFGMHWVRQAPEKGLEWVAYISSGSSTIYYADTVKGRFTISRDNPKNTLFLQMTSLRSEDTAMYYCARDWVLDYWGQGTTLTVSS
VL: DIVITQTPLSLPVSLGDQASVSCRSSQSLVHSNGNTYLHWYLQKPGQSPKLLIYKVSNRFSGVPDRFSGSGSGTDFTLNISRVEAEDLGVYFCSQSTHVPFTFGGGTKLEIKR
notes: Mouse (Balb/c) hybridoma antibody, Ig type IgG2b; also called LMP1 7B63B10; 本发明单克隆抗体
Ka: 9e+09 M⁻¹

Source: patent publication CN111647564A (LI XIN; CHONG TUOTUO; LONG YUFEI, dated 2020)
